Laboratory results as given in patent publication US20170044257A1 (BRIGHAM AND WOMEN S HOSPITAL, published 2017).

Target: T1, human alpha-fetoprotein (hAFP) (human, UniProt P02771 19-609)
T1 construct: No signal peptide cleavage site is stated; also called human AFP
T1 sequence: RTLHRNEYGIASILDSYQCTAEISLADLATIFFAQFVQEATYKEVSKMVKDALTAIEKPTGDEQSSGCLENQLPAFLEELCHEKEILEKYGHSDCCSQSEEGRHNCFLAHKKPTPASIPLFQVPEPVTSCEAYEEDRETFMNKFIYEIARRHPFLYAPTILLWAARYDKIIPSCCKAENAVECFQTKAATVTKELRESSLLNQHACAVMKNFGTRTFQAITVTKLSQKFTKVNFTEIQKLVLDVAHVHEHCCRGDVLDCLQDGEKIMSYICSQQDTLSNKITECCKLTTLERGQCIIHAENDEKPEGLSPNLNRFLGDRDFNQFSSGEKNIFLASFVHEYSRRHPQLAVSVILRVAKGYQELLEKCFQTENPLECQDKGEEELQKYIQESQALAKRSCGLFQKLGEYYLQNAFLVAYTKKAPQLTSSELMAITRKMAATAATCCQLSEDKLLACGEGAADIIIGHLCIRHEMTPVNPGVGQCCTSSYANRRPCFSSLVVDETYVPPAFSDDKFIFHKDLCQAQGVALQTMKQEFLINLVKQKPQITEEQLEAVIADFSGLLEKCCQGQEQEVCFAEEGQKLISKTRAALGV
Assay: SPR (Biacore 3000), mFcRn/mβ2m on chip, hAFP injected, neutral pH
Experimental: Surface plasmon resonance was conducted using a Biacore 3000 instrument (GE Healthcare) with CMS sensor chips coupled with recombinant human FcRn & hβ₂m heterodimer protein or mouse FcRn & mβ₂m (1000 RU). The coupling was performed by injecting 25 μg/mL of the protein diluted in 10 mM sodium acetate pH 5.0 using the amine coupling kit (GE Healthcare). Phosphate buffer (67 mM phosphate buffer, 0.15 M NaCl, 0.005% Tween 20) at pH 6.0 or pH 7.4 was used as running buffer. Glycine pH 2.5 was used for regeneration of the flow cells. hAFP (SinoBiological) was injected at 25° C. with a flow rate of 25 μl/min, and data were analyzed using the BIAevaluation 4.1 software where the sensorgrams were zero adjusted and reference cell values subtracted.

B1: recombinant mouse FcRn & mβ2m (receptor)
chain: SETRPPLMYHLTAVSNPSTGLPSFWATGWLGPQQYLTYNSLRQEADPCGAWMWENQVSWYWEKETTDLKSKEQLFLEALKTLEKILNGTYTLQGLLGCELASDNSSVPTAVFALNGEEFMKFNPRIGNWTGEWPETEIVANLWMKQPDAARKESEFLLNSCPERLLGHLERGRRNLEWKEPPSMRLKARPGNSGSSVLTCAAFSFYPPELKFRFLRNGLASGSGNCSTGPNGDGSFHAWSLLEVKRGDEHHYQCQVEHEGLAQPLTVDLDSSARSS
b2m: IQKTPQIQVYSRHPPENGKPNILNCYVTQFHPPHIEIQMLKNGKKIPKVEMSDMSFSKDWSFYILAHTEFTPTETDTYACRVKHASMAEPKTVYWDRDM
notes: Coupled to the Biacore chip for SPR; also called mFcRn
Does B1 bind?
Result: binds
